In series [1] the test system is HeLa Kyoto. In words: solubility in G1/S (NP-40 vs SDS abundance) (log2 ratio); higher = more soluble. As to conditions: cell cycle stage: G1/S.
The test system of series [2] is HeLa Kyoto. Briefly: melting temperature (median over replicates), in situ; higher = more thermally stable.
The test system of series [3] is HeLa Kyoto. Briefly: solubility change mitosis vs G1/S (difference of NP-40 vs SDS log2 ratios) (log2 ratio difference); higher = more soluble in mitosis.
Series [4] concerns HeLa Kyoto. Briefly: thermal stability score vs G1/S (z-score of summed log2 fold changes over temperatures); higher = more thermally stable than in G1/S.
Where [5] appears, read: cell cycle stage: early G1 (4.5 h after nocodazole release).

The source of these data is the supplement of paper PMC5998384.
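Throughout, for melting temperature (median over replicates), in situ: HeLa Kyoto cells synchronized by double thymidine or nocodazole block, proteins quantified by TMT10plex mass spectrometry, three independent biological replicates.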
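Throughout, for solubility change mitosis vs G1/S (difference of NP-40 vs SDS log2 ratios): synchronized HeLa Kyoto cells (double thymidine block for G1/S, nocodazole release for mitosis), protein amounts in NP-40 versus SDS lysates quantified by mass spectrometry, three biological replicates.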
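Throughout, for solubility in G1/S (NP-40 vs SDS abundance): HeLa Kyoto cells arrested at G1/S by double thymidine block, proteins quantified by TMT10plex mass spectrometry in mild NP-40 versus SDS extracts, three biological replicates.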
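Throughout, for thermal stability score vs G1/S (z-score of summed log2 fold changes over temperatures): synchronized HeLa Kyoto cells, proteins quantified by TMT10plex mass spectrometry, three biological replicates, mitosis taken 0.5 h after nocodazole release, G1/S directly after double thymidine block.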

Regarding “MFSVESLERAELCESLLTWIQTFNVDAPCQTVEDLTNGVVMAQVLQKIDPAYFDENWLNRIKTEVGDNWRLKISNLKKILKGILDYNHEILGQQINDFTLPDVNLIGEHSDAAELGRMLQLILGCAVNCEQKQEYIQAIMMMEESVQHVVMTAIQELMSKESPVSAGNDAYVDLDRQLKKTTEELNEALSAKEEIAQRCHELDMQVAALQEEKSSLLAENQVLMERLNQSDSIEDPNSPAGRRHLQLQTQLEQLQEETFRLEAAKDDYRIRCEELEKEISELRQQNDELTTLADEAQSLKDEIDVLRHSSDKVSKLEGQVESYKKKLEDLGDLRRQVKLLEEKNTMYMQNTVSLEEELRKANAARSQLETYKRQVVELQNRLSEESKKADKLDFEYKRLKEKVDSLQKEKDRLRTERDSLKETIEELRCVQAQEGQLTTQGLMPLGSQESSDSLAAEIVTPEIREKLIRLQHENKMLKLNQEGSDNEKIALLQSLLDDANLRKNELETENRLVNQRLLEVQSQVEELQKSLQDQGSKAEDSVLLKKKLEEHLEKLHEANNELQKKRAIIEDLEPRFNNSSLKIEELQEALRKKEEEMKQMEERYKKYLEKAKSVIRTLDPKQNQGAAPEIQALKNQLQERDRLFHSLEKEYEKTKSQREMEEKYIVSAWYNMGMTLHKKAAEDRLASTGSGQSFLARQRQATSSRRSYPGHVQPATAR [HOOK3]”, the “solubility in G1/S (log2)” value in series [1] amounted to 0.753. Also, the melting temperature stood at 50.4 °C in series [2] (cell cycle stage: G1/S) and 51 °C in series [2] (cell cycle stage: mitosis). Besides, the “solubility change mitosis (log2)” value in series [3] was -0.00542. The thermal stability score in series [4] (setting [5]) was 0.316; in series [4] (cell cycle stage: mitosis) it was 0.85.
“MFTLAEVASLNDIQPTYRILKPWWDVFMDYLAVVMLMVAIFAGTMQLTKDQVVCLPVLPSPVNSKAHTPPGNAEVTTNIPKMEAATNQDQDGRTTNDISFGTSAVTPDIPLRATYPRTDFALPNQEAKKEKKDPTGRKTNLDFQQYVFINQMCYHLALPWYSKYFPYLALIHTIILMVSSNFWFKYPKTCSKVEHFVSILGKCFESPWTTKALSETACEDSEENKQRITGAQTLPKHVSTSSDEGSPSASTPMINKTGFKFSAEKPVIEVPSMTILDKKDGEQAKALFEKVRKFRAHVEDSDLIYKLYVVQTVIKTAKFIFILCYTANFVNAISFEHVCKPKVEHLIGYEVFECTHNMAYMLKKLLISYISIICVYGFICLYTLFWLFRIPLKEYSFEKVREESSFSDIPDVKNDFAFLLHMVDQYDQLYSKRFGVFLSEVSENKLREISLNHEWTFEKLRQHISRNAQDKQELHLFMLSGVPDAVFDLTDLDVLKLELIPEAKIPAKISQMTNLQELHLCHCPAKVEQTAFSFLRDHLRCLHVKFTDVAEIPAWVYLLKNLRELYLIGNLNSENNKMIGLESLRELRHLKILHVKSNLTKVPSNITDVAPHLTKLVIHNDGTKLLVLNSLKKMMNVAELELQNCELERIPHAIFSLSNLQELDLKSNNIRTIEEIISFQHLKRLTCLKLWHNKIVTIPPSITHVKNLESLYFSNNKLESLPVAVFSLQKLRCLDVSYNNISMIPIEIGLLQNLQHLHITGNKVDILPKQLFKCIKLRTLNLGQNCITSLPEKVGQLSQLTQLELKGNCLDRLPAQLGQCRMLKKSGLVVEDHLFDTLPLEVKEALNQDINIPFANGI [LRRC8D]”: the “solubility in G1/S (log2)” value in series [1] was determined as 0.141. The melting temperature in series [2] (cell cycle stage: G1/S) came out at 53.7 °C; in series [2] (cell cycle stage: mitosis) it was 53 °C. The “solubility change mitosis (log2)” value in series [3] is -0.126. Also, the figures for the thermal stability score in series [4] (setting [5]) and in series [4] (cell cycle stage: mitosis) were 0.491 and 0.22, respectively.
Regarding “MFTSTGSSGLYKAPLSKSLLLVPSALSLLLALLLPHCQKLFVYDLHAVKNDFQIWRLICGRIICLDLKDTFCSSLLIYNFRIFERRYGSRKFASFLLGSWVLSALFDFLLIEAMQYFFGITAASNLPSGFLAPVFALFVPFYCSIPRVQVAQILGPLSITNKTLIYILGLQLFTSGSYIWIVAISGLMSGLCYDSKMFQVHQVLCIPSWMAKFFSWTLEPIFSSSEPTSEARIGMGATLDIQRQQRMELLDRQLMFSQFAQGRRQRQQQGGMINWNRLFPPLRQRQNVNYQGGRQSEPAAPPLEVSEEQVARLMEMGFSRGDALEALRASNNDLNVATNFLLQH [UBAC2]”, the “solubility in G1/S (log2)” value in series [1] was -0.173. For the same sequence, the figures for the melting temperature in series [2] (cell cycle stage: G1/S) and in series [2] (cell cycle stage: mitosis) were 50.4 °C and 51.2 °C, respectively. Besides, the “solubility change mitosis (log2)” value in series [3] was -0.209. Besides, the values for the thermal stability score in series [4] (setting [5]) and in series [4] (cell cycle stage: mitosis) were 0.579 and 1.39, respectively.
As for “MFWKFDLHTSSHLDTLLEREDLSLPELLDEEDVLQECKVVNRKLLDFLLQPPHLQAMVAWVTQEPPDSGEERLRYKYPSVACEILTSDVPQINDALGADESLLNRLYGFLQSTGSLNPLLASFFSKVMGILINRKTDQLVSFLRKKDDFVDLLLQHIGTSAIMDLLLRLLTCVERPQLRQDVVNWLNEEKIVQRLIEQIHPSKDENQHSNASQSLCDIIRLSREQMIQVQDSPEPDQLLATLEKQETIEQLLSNMFEGEQSQSVIVSGIQVLLTLLEPRRPRSESVTVNSFFSSVDGQLELLAQGALESTVSSVGALHALRPRLSCFHQLLLEPPKLEPLQMTWGMLAPPLGNTRLHVVKLLASALSANDAALTHELLALDVPNTMLDLFFHYVFNNFLHAQVEGCVSTMLSLGPPPDSSPETPIQNPVVKHLLQQCRLVERILTSWEENDRVQCAGGPRKGYMGHLTRVAGALVQNTEKGPNAEQLRQLLKELPSEQQEQWEAFVSGPLAETNKKNMVDLVNTHHLHSSSDDEDDRLKEFNFPEEAVLQQAFMDFQMQRMTSAFIDHFGFNDEEFGEQEESVNAPFDKTANITFSLNADDENPNANLLEICYKDRIQQFDDDEEEEDEEEAQGSGESDGEDGAWQGSQLARGARLGQPPGVRSGGSTDSEDEEEEDEEEEEDEEGIGCAARGGATPLSYPSPGPQPPGPSWTATFDPVPTDAPTSPRVSGEEELHTGPPAPQGPLSVPQGLPTQSLASPPARDALQLRSQDPTPPSAPQEATEGSKVTEPSAPCQALVSIGDLQATFHGIRSAPSSSDSATRDPSTSVPASGAHQPPQTTEGEKSPEPLGLPQSQSAQALTPPPIPNGSAPEGPASPGSQ [PPP6R1]”, in series [1], the “solubility in G1/S (log2)” value was determined as 0.169. In addition, the figures for the melting temperature in series [2] (cell cycle stage: G1/S) and in series [2] (cell cycle stage: mitosis) were 53.1 °C and 50.6 °C, respectively. The “solubility change mitosis (log2)” value in series [3] is -0.0433. In addition, the results for the thermal stability score in series [4] (setting [5]) and in series [4] (cell cycle stage: mitosis) were -1.2 and -0.743, respectively.
Turning to “MGAPLLSPGWGAGAAGRRWWMLLAPLLPALLLVRPAGALVEGLYCGTRDCYEVLGVSRSAGKAEIARAYRQLARRYHPDRYRPQPGDEGPGRTPQSAEEAFLLVATAYETLKDEETRKDYDYMLDHPEEYYSHYYHYYSRRLAPKVDVRVVILVSVCAISVFQFFSWWNSYNKAISYLATVPKYRIQATEIAKQQGLLKKAKEKGKNKKSKEEIRDEEENIIKNIIKSKIDIKGGYQKPQICDLLLFQIILAPFHLCSYIVWYCRWIYNFNIKGKEYGEEERLYIIRKSMKMSKSQFDSLEDHQKETFLKRELWIKENYEVYKQEQEEELKKKLANDPRWKRYRRWMKNEGPGRLTFVDD [DNAJC25]”, the “solubility in G1/S (log2)” value in series [1] was -0.101. In addition, the melting temperature was found to be 50.5 °C in series [2] (cell cycle stage: G1/S) and 50.2 °C in series [2] (cell cycle stage: mitosis). Besides, in series [3], the “solubility change mitosis (log2)” value was determined as 0.00727. Also, the thermal stability score was 0.0789 in series [4] (setting [5]) and -0.224 in series [4] (cell cycle stage: mitosis).
